The subject of assay [1] is HBV. Put plainly: HBV-infection inhibition in human hepatocyte chimeric mouse, serum HBV-DNA. It counts as in vivo, human hepatocyte chimeric mouse (uPA/SCID). Set-up: key to serum HBV DNA level, One week later / serum HBV DNA level, Two weeks later / serum HBV DNA level, Three weeks later / serum HBV DNA level, Four weeks later / serum HBV DNA level, Five weeks later: “—” indicates values below the limit of detection.; “<3.61” indicates values below the limit of quantitation but a specific signal detected indicating an amplification reaction of HBV. The method, then: Preparation of uPA/SCID mice and transplantation of human hepatocytes were carried out in accordance with the report (Tateno C. et al., Am. J. Pathol., 165: 901-912, 2004). To all mice, human hepatocytes taken from the same donor were transplanted. Twenty-three mice, which are obtained by replacing 90% or more of the liver tissue with human hepatocytes by transplantation, were used in the experiment. To these mice, human serum containing 10^3 copies of HBV was administered (inoculated) through the tail vein. One day before and two days after HBV inoculation, 2.0 mg of purified N6HB426-20 antibody was intravenously injected. On Day 7, 14, and 21 after the HBV inoculation, 1.0 mg of the same antibody was intraperitoneally injected. As a control experiment, the same dose of normal mouse IgG antibody (Normal Mouse IgG, Whole Molecule, Purified, FUJIFILM Wako Pure Chemical Corporation) was injected in the same manner. A single mouse died on Day 0 after administration was excluded from the experiment. Ten mice for each of the groups, in total, 20 mice, were used. After the HBV inoculation, the serum was collected every week. Note that, 3 mice were used for confirmation of infection and not administered with a drug.
For quantification of HBV-DNA, 10 μL of mouse serum was used. Mouse serum was diluted with 690 μL of PBS and DNA was extracted. The serum HBV-DNA level was measured by a real-time PCR method using cobas 6800 System (Roche Diagnostics KK, Tokyo, Japan). In this measurement method, the lower limit of quantification was 3.61 log copies/mL. Mouse serum (10 μL) was diluted 30 folds with PBS and bile acid was measured.

For assay [2], the target named is T1, epitope region-containing peptide fragment (AFPPEVIGPLFFFPLLYMIFQLGEG-biotin) (Homo sapiens, UniProt Q14973).
T1 sequence (Q14973 273-297 limits assumed): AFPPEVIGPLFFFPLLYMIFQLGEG
Put plainly: Surface plasmon resonance assay (BIAcore) of antigen binding affinity. The settings on record: 25° C.; antibody immobilized on CM5 chip. The method, then: In short, a carboxymethylated dextran biosensor chip (CM5, BIAcore Inc.) was activated by N-ethyl-N′-(3-dimethylaminopropyl)-carbodiimide hydrochloride (EDC) and N-hydroxysuccinimide (NHS) in accordance with the provider's instruction. An anti-mouse IgG antibody was diluted with 10 mM sodium acetate (pH5.2) up to 30 μg/ml. The dilution was injected at a flow rate of 5 to 10 μl/minute such that the reaction unit (RU) of the protein bound became 9,000 to 14,000 RU. In contrast, an anti-human IgG antibody was diluted with 10 mM sodium acetate (pH5.0) up to 25 μg/ml. The diluted antibody was injected at a flow rate of 5 to 10 μl/minute such that the reaction unit (RU) of the protein bound became 9,000 to 14,000 RU. After injection of each of the anti IgG antibodies, 1 M ethanolamine was injected in order to block unreactive groups. For kinetic measurement, N6HB426 antibody diluted with a running buffer (HBS-P: 10 mM HEPES pH7.5, 150 mM NaCl, 0.005% NP40) up to 10 μg/ml was immobilized onto CM5 chip via the anti-mouse IgG antibody, in advance. To the chip, a solution of an epitope region-containing peptide fragment ([…]-biotin: SEQ ID NO: 24) diluted with the running buffers at different concentrations was added at 25° C. at a flow rate of 10 μl/minute for 2 minutes. In contrast, the recombinant N6HB426 human chimeric IgG4 antibody was diluted with the running buffer up to 10 μg/ml and then was immobilized onto a sensor chip (CM5) via the anti-human IgG antibody in advance. To the chip, a solution of an epitope region-containing peptide fragment diluted with the running buffers at different concentrations was added at 25° C. at a flow rate of 10 μl/minute for 2 minutes.
The refractive index of the solution varied in correlation to the mass of a chip surface changed when a peptide fragment molecule bound to N6HB426 antibody on the sensor chip, was monitored in real-time. Using simple one-to-one Langmuir binding model (BIAcore Evaluation software version 3.1) by fitting sensor grams of antigen-antibody association and dissociation at the same time, association rate (Ka) and dissociation rate (Kd) were calculated. A Kd/Ka ratio was calculated to obtain an equilibrium dissociation constant (KD).

Values joined by “and” are separate entries in the source; they are usually repeats but may differ in a detail not shown here. Equal values may be shown once.

B1: N6HB426-20 antibody: anti-human NTCP monoclonal antibody from a sub-clone of N6HB426 hybridoma; VH SEQ ID NO: 3, VL SEQ ID NO: 4 (antibody, V domains shown)
VH: QVQLQQSGAELVKPGASVKLSCKASDFTFTEYTIHWIKQMSGQGLEWIGWFYPGSGDIKYSEKFKDKATLTADKSSSTVYMELNRLTSEDSAVYFCARHMRDFRGFYYGRFYFDYWGQGTTLTVSS
VL: EIVLTQSPAIMSASPGEKVTITCRASSSVSSSYLHWYQQKSGVSPKLWIYSTSNLASGVPARFSGSGSGTSYSLTINSVEAEDAATYYCQQYSGYRWTFGGGTTLEIKRA
modifications: N6HB426 antibody heavy chain variable region; N6HB426 antiibody light chain variable region
For B1, the “serum HBV-DNA in the 4th week after HBV inoculation” value in assay [1] (all of the 10 mice of the group) is recorded as “not detected”. Also, the “serum HBV DNA level, Five weeks later” value in assay [1] (test group, individual mice, five weeks after HBV inoculation) was “— (8×) and <3.61 log copies/mL”. In addition, in assay [1] (test group, individual mice, four weeks after HBV inoculation), the “serum HBV DNA level, Four weeks later” value was “—”. Moreover, the “serum HBV DNA level, One week later” value in assay [1] (test group, individual mice, one week after HBV inoculation) was “—”. In addition, the “serum HBV DNA level, Three weeks later” value in assay [1] (test group, individual mice, three weeks after HBV inoculation) is recorded as “—”. Also, in assay [1] (test group, individual mice, two weeks after HBV inoculation), the “serum HBV DNA level, Two weeks later” value was “—”. Besides, in assay [2], the “Ka (1/Ms) association rate” value is 821.2 M⁻¹ s⁻¹ and the “Kd (1/s) dissociation rate” value amounted to 3.19e-08 s⁻¹.
